This note sets out measurements from paper PMC11184549.

For test [1], the target named is FITC-labeled DENV3 NS5 NLS_(C-term) peptide (dengue virus serotype 3 (DENV3)). Kind of test: fluorescence polarisation. For orientation: Polarisation of emitted light reports the rotation of a fluorescent probe.
Test [2] addresses FITC-labeled DENV2 NS5 NLS_(C-term) peptide (dengue virus serotype 2 (DENV2)). Kind of test: fluorescence polarisation.

Sequence of human IMPα3 lacking the IMPβ-binding domain (IMPαΔIBB) (O00629 64-521, stated change not applied): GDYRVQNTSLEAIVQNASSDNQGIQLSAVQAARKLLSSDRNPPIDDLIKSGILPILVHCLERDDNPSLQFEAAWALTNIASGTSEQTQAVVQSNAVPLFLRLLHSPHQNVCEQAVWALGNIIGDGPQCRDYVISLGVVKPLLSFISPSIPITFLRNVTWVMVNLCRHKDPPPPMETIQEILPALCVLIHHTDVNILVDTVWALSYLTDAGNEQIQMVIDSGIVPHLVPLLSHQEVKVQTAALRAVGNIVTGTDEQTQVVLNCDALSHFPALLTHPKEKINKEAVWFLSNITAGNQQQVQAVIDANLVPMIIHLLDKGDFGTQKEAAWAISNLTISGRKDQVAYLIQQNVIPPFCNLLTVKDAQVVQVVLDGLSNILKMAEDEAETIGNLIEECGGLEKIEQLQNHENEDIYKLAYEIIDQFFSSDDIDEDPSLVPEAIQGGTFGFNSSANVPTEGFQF
Sequence of human IMPα7 lacking the IMPβ-binding domain (IMPαΔIBB) (O60684 73-536, stated change not applied): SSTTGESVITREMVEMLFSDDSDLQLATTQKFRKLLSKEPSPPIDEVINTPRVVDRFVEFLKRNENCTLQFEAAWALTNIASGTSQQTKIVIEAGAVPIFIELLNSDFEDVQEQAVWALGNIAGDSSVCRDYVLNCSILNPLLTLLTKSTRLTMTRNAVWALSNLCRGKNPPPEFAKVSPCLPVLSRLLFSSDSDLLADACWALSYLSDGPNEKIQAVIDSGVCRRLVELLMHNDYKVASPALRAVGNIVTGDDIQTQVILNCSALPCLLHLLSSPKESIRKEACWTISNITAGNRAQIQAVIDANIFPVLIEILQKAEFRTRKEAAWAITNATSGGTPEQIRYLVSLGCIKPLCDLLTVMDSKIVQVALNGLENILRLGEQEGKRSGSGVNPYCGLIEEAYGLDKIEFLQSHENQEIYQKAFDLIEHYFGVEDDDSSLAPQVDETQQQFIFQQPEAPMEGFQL

The term Kd denotes a measure of binding affinity in units of concentration. Higher therefore signals lower affinity. Take “human IMPα1 lacking the IMPβ-binding domain (IMPαΔIBB) (from UniProt P52292 70-529) (domain or fragment)”: the Kd in test [1] amounted to 140 nM; in test [2], 90 nM.
For “human IMPα3 lacking the IMPβ-binding domain (IMPαΔIBB) (from UniProt O00629 64-521) (domain or fragment)”, the figures for the Kd in test [1] and in test [2] were 150 nM and 80 nM, respectively.
Regarding “human IMPα7 lacking the IMPβ-binding domain (IMPαΔIBB) (from UniProt O60684 73-536) (domain or fragment)”, the Kd in test [1] came out at 190 nM; in test [2], 180 nM.
